Biological target: sulfonylurea receptor 1 (Sur1) (mouse (endogenous in lumbar spinal cord))
Assay: FRET or BRET; immunoFRET on 7 um cryosections of lumbar spinal cord of pid-30 WT/EAE mice; custom anti-Sur1 and anti-Trpm4 primary antibodies, secondary antibodies conjugated with Cy3 or Cy5; control: omission of one of the two primary antibodies

Sequence of sulfonylurea receptor 1 (Sur1) (mouse (endogenous in lumbar spinal cord)) (B2RUS7 entry or part of it): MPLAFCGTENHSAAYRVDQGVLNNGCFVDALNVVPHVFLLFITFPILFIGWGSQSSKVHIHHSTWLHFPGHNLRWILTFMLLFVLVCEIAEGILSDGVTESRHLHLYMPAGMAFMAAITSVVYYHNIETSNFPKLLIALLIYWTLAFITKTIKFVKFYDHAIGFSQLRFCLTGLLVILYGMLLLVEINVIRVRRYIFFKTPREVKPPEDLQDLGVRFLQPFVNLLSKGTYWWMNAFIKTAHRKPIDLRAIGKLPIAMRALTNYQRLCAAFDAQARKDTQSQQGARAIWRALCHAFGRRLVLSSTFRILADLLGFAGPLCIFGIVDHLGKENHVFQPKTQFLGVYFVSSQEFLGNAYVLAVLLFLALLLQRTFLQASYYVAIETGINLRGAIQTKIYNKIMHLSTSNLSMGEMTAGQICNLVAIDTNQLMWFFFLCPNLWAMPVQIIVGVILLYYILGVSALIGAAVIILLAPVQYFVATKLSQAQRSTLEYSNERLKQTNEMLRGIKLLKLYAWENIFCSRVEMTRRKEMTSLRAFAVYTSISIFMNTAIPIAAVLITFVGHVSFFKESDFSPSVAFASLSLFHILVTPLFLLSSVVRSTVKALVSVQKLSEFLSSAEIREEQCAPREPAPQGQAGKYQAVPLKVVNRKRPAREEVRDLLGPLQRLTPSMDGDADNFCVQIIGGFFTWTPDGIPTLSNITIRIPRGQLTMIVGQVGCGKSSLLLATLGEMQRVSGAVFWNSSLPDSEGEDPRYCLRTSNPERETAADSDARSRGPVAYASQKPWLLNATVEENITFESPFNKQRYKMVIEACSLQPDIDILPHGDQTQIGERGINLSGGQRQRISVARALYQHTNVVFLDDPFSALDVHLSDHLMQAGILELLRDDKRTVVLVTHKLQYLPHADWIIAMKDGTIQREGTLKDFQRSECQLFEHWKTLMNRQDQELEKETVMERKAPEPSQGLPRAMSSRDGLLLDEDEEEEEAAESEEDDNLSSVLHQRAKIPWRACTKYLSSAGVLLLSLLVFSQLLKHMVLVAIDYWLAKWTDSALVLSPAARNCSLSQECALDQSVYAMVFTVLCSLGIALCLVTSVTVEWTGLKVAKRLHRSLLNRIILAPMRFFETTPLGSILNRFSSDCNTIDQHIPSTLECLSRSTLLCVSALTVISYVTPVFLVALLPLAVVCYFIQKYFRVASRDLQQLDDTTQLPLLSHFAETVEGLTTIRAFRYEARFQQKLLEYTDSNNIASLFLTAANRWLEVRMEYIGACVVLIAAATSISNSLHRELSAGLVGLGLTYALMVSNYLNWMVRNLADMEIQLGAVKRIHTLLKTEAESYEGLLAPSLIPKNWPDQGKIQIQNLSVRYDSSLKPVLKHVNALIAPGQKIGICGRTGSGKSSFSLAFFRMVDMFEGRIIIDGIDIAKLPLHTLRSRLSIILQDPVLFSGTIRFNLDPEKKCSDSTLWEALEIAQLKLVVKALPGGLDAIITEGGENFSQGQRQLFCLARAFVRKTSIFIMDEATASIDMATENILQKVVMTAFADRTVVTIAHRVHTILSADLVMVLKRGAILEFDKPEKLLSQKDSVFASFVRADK

FRET efficiency: 10 to 14%
Substance: transient receptor potential melastatin 4 (Trpm4) (from UniProt Q7TN37 1-1213) (natural protein)

Source: publication PMC4652344
